In article PMC11033290 one finds stoichiometry N data, which are given here for one substance.

The test concerns the target Recombinant M. tuberculosis MDP1 (Mycobacterial DNA-binding protein 1) produced in Mycolicibacterium (Mycobacterium tuberculosis) (UniProt P9WMK7). The test is described as follows: cross-linking; glutaraldehyde 0.2%, room temperature, 30 min; 4 µM or 8 µM protein in 150-1500 mM NaCl; SDS-PAGE on a 4-15% gradient gel.

“And” between values parts separate entries of the source, which are not always exact repeats. Equal entries are not always repeated.

As a reminder, the stoichiometry N is the number of molecules, sites or subunits per partner or assembly. As for “Recombinant M. tuberculosis MDP1 (Mycobacterial DNA-binding protein 1) produced in Mycolicibacterium (from UniProt P9WMK7 3-216) (natural protein)”, the stoichiometry N was 2 and 3.
